# Source: the supplement of paper PMC10567573
# B1: PTPRD (parent)
# chain: ITWFKDFLPVDTSNNNGRIKQLRS
# B2: ATL3 (parent)
# chain: QELEEEIKELYENFCKHNGSKNVF
# Variants of: B1
# Assay: protein stability index of a GFP-peptide fusion (GPS, HEK-293T) (PSI 1-6); higher = more stable
# Settings: c terminus: a fixed tail appended
# 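Further: lentivirally expressed fusions sorted by FACS into six bins by GFP to DsRed ratio, PSI derived from sequencing read proportions per bin multiplied by bin number.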
row,Variant,protein stability index
1,N16C,2.09
2,N16W,2.17
3,I19V,1.73
4,F7Q,2.05
5,F7K,1.88
6,K5G,2.17
7,N14H,1.37
8,L8P,1.96
9,L8N,2.1
10,L8H,1.93
11,L8S,2.04
12,L8F,1.88
13,D11G,1.99
14,D11Q,1.84
15,S13F,1.52
16,S13V,2.38
17,L22W,1.84
18,R18M,1.63
19,G17M,1.34
20,K20W,1.95
21,I1R,3.03
22,I1Q,2.71
23,P9C,1.58
24,P9Q,2.12
25,F4T,2.03
26,V10N,2.34
27,S24T,1.51

# Variants of: B2
# Assay: as above
# Settings: c terminus: a fixed tail appended
row,Variant,protein stability index
1,N18S,2.42
2,N18D,2.28
3,N18I,2.04
4,N18Q,2.68
5,N18W,2.85
6,N18G,2.34
7,N18F,2.3
8,N18V,2.58
9,N18K,2.55
10,N18Y,2.37
11,N18P,2.72
12,N18M,2.69
13,N18C,2.75
14,N18E,2.36
15,N18A,2.24
16,N18T,2.6
17,N18H,2.94
18,N18R,2.86
19,N18L,3.23
20,F14L,3.27
21,F14N,4.55
22,F14A,4.29
23,F14I,3.16
24,F14T,3.69

row,Variant,protein stability index
1,F14P,4.37
2,F14Y,3.53
3,F14S,4.58
4,F14D,4.46
5,F14K,4.5
6,F14R,4.1
7,F14E,5.25
8,F14M,4.06
9,F14C,3.75
10,F14W,2.58
11,F14V,3.53
12,F14Q,4.49
13,F14H,4.07
14,F14G,4.42
15,K8W,2.68
16,K8T,3.31
17,K8V,3.19
18,K8Y,2.37
19,G19V,2.35
20,G19Q,2.73
21,G19F,2.65
22,G19M,2.46
23,G19L,2.55
24,G19C,2.31

row,Variant,protein stability index
1,G19I,2.99
2,G19E,2.11
3,G19A,2.59
4,G19N,2.69
5,G19T,2.25
6,G19K,2.4
7,G19P,3.03
8,G19H,2.87
9,G19D,2.46
10,G19W,1.91
11,G19R,2.54
12,G19S,3.18
13,G19Y,2.85
14,K21R,2.12
15,K21Y,1.55
16,K21P,2.37
17,K21W,1.81
18,K21T,2.08
19,K21N,2.42
20,K21I,2.12
21,K21L,2.15
22,K21V,1.82
23,K21A,2.25
24,K21Q,2.55

row,Variant,protein stability index
1,K21D,2.11
2,K21M,1.85
3,K21S,1.57
4,K21E,1.96
5,K21F,1.65
6,K21C,2.1
7,K21H,2.16
8,K21G,2.49
9,Y11I,3.64
10,Y11L,3.61
11,Y11E,4.54
12,Y11S,4.61
13,Y11H,4.46
14,Y11N,4.68
15,Y11G,4.74
16,Y11C,4.16
17,Y11T,4.3
18,Y11D,5.09
19,Y11W,2.96
20,Y11M,3.96
21,Y11Q,4.58
22,Y11A,4.25
23,Y11F,2.64
24,Y11V,3.93

row,Variant,protein stability index
1,Y11R,4.39
2,Y11K,4.88
3,Y11P,5.15
4,V23C,2.27
5,V23A,2.73
6,V23F,2.22
7,V23R,3.44
8,V23T,2.49
9,V23D,2.16
10,V23Y,1.94
11,V23S,2.38
12,V23H,3.56
13,V23G,2.94
14,V23Q,2.68
15,V23I,2.62
16,V23M,3.24
17,V23E,3.07
18,V23L,2.68
19,V23W,2.85
20,V23P,2.61
21,V23N,3.06
22,V23K,2.89
23,E12N,2.53
24,E12P,3.31

row,Variant,protein stability index
1,E12R,2.19
2,E12Y,2.03
3,E12I,2.27
4,E12V,2.42
5,E12C,2.35
6,E12H,2.81
7,E12A,2.37
8,E12K,2.67
9,E12M,2.41
10,E12D,2.89
11,E12S,3.13
12,E12L,2.12
13,E12Q,2.39
14,E12W,1.98
15,E12T,2.83
16,E12F,2.56
17,E12G,3.27
18,E9D,3.39
19,E9V,2.4
20,E9C,2.69
21,E9I,1.95
22,E9T,2.59
23,E9Y,2.09
24,E9S,2.39

row,Variant,protein stability index
1,E9N,2.77
2,E9H,2.27
3,E9G,2.44
4,E9A,2.37
5,E9K,2.38
6,E9F,1.86
7,E9P,3.24
8,E9M,2.47
9,E9R,2.59
10,E9Q,2.22
11,E9W,2.41
12,E9L,1.64
13,H17Q,2.44
14,H17E,2.51
15,H17L,2.99
16,H17N,2.51
17,H17D,2.69
18,H17G,2.75
19,H17W,2.46
20,H17S,2.62
21,H17M,2.96
22,H17P,3.34
23,H17V,2.72
24,H17R,2.6

row,Variant,protein stability index
1,H17A,2.52
2,H17K,2.67
3,H17F,3.2
4,H17T,2.63
5,H17I,2.94
6,H17C,2.65
7,H17Y,2.42
8,N13L,1.83
9,N13I,2.13
10,N13P,3.73
11,N13T,2.86
12,N13E,2.11
13,N13H,2.83
14,N13C,2.26
15,N13A,1.72
16,N13Q,2.13
17,N13G,3.76
18,N13F,2.72
19,N13D,3.15
20,N13S,2.6
21,N13V,2.89
22,N13W,2.37
23,N13Y,2.34
24,N13M,1.79

row,Variant,protein stability index
1,N13R,2.55
2,N13K,2.15
3,F24V,3.01
4,F24M,3.06
5,F24H,3.37
6,F24N,3.07
7,F24W,2.46
8,F24T,3.11
9,F24C,3.17
10,F24S,3.28
11,F24A,3.45
12,F24R,3.24
13,F24G,2.73
14,F24E,2.9
15,F24D,2.38
16,F24Y,2.65
17,F24L,2.56
18,F24I,2.48
19,F24Q,2.93
20,F24P,2.74
21,C15H,4.12
22,C15S,3.89
23,C15I,2.07
24,C15W,3.73

row,Variant,protein stability index
1,C15F,3.03
2,C15Y,3.77
3,C15K,3.49
4,C15R,3.3
5,C15G,4.07
6,C15D,4.08
7,C15M,2.02
8,C15P,3.91
9,C15E,3.86
10,C15V,2.27
11,C15N,3.97
12,C15T,3.5
13,C15Q,3.67
14,C15A,3.86
15,C15L,1.97
16,K16S,2.99
17,K16F,3.11
18,K16G,3.51
19,K16C,3.43
20,K16A,3.17
21,K16N,2.36
22,K16M,2.79
23,K16H,2.74
24,K16W,2.91

row,Variant,protein stability index
1,K16P,3.88
2,K16E,3.81
3,K16T,3.03
4,K16I,2.86
5,K16D,3.53
6,K16Y,2.49
7,K16Q,3.11
8,K16R,2.73
9,K16L,3.09
10,K16V,3.15
11,S20N,2.48
12,S20P,3.46
13,S20G,2.48
14,S20D,1.97
15,S20I,2.54
16,S20M,2.24
17,S20L,2.41
18,S20V,2.93
19,S20K,3.17
20,S20E,2.04
21,S20H,2.59
22,S20Y,2.29
23,S20C,2.28
24,S20Q,2.45

row,Variant,protein stability index
1,S20A,2.66
2,S20T,2.7
3,S20F,2
4,S20R,3.77
5,S20W,2.16
6,N22L,2.57
7,N22K,3.17
8,N22A,2.96
9,N22Y,2.05
10,N22W,1.48
11,N22V,2.62
12,N22Q,2.98
13,N22H,2.3
14,N22E,2.38
15,N22D,1.91
16,N22G,2.28
17,N22C,2.34
18,N22F,2.59
19,N22T,2.16
20,N22P,3.25
21,N22M,2.8
22,N22S,2.96
23,N22R,3.3
24,N22I,2.48

row,Variant,protein stability index
1,L10T,4.54
2,L10Q,3.88
3,L10M,3.02
4,L10C,4.14
5,L10S,4.25
6,L10F,3.23
7,L10P,4.23
8,L10K,3.92
9,L10Y,3.92
10,L10A,3.48
11,L10G,4.41
12,L10W,3.06
13,L10H,4.33
14,L10N,4.05
15,L10E,4.5
16,L10R,4.2
17,L10V,4.12
18,L10D,4.46
19,L10I,3.14
